The assay concerns the target gp120. In words: fluorescence anisotropy, Kd values of Table I, told of the isolates together. Background: In fluorescence polarisation assays a small probe gives low polarisation when free and higher when bound to something large.

As for “Alexa labeled mini-protein CD4M47 (peptide)”, the fold gain of affinity over CD4M48 is 3 fold.

These data come from US20090285798A1.
